Reference: paper doi:10.1101/858225, “FANCD2-FANCI is a clamp stabilized on DNA by monoubiquitination during DNA repair” (bioRxiv, 2019)

B1: His-tagged Gallus gallus FANCI (expressed alone) (natural protein, UniProt B0I564 1-1338, looked up)
chain: MAQRILQLAAEGSPERLQEALQGLTEGELGDMVTRQALRGRETAALLKGIFKGSPCSQQSGVLRRLQVYKHCVSLVESGDLHVGKVSEIIGLLMLEARQLPGHALAELATLFVEVIKRGSLSNGKSLELFSTVLTALSNSKESLAYGKGELNGEEFKKQLINTLCSSKWDPQCVIHLANMFRDIPLSGEELQFVVEKVLRMFSKLDLQEIPPLVYQLLLLSAKGSKKTVLEGIISFFNQLDKRQKEEQRVPQSADLEVATVPLDQLRHVEGTVILHIVSAINLDQDIGEELIKHLKTEQQKDPGKALCPFSVSLLLSTAVKHRLQEQIFDFLKTSITRSCKDLQILQASKFLQDLCPQQYDVTAVILEVVKNSAFGWDHVTQGLVDLGFSLMESYEPKKSFGGKAAETNLGLSKMPAQQACKLGASILLETFKVHEPIRSDILEQVLNRVLTKAASPVSHFIDLLSNIVVSAPLVLQNSSSRVTETFDNLSFLPIDTVQGLLRAVQPLLKVSMSVRDSLILVLQKAIFSRQLDARKAAVAGFLLLLRNFKILGSLTSSQCSQAIGATQVQADVHACYNSAANEAFCLEILGSLRRCLSQQADVRLMLYEGFYDVLRRNSQLASSIMETLLSQIKQYYLPQQDLLPPLKLEGCIMAQGDQIFLQEPLAHLLCCIQHCLAWYKSTVHLCKGAEDEEEEEDVGFEQNFEEMLESVTRRMIKSELEDFELDKSADFSPSSGVGVKNNIYAIQVMGICEVLIEYNFKIGNFSKNKFEDVLGLFTCYNKLSEILKEKAGKNKSTLGNRIARSFLSMGFVSTLLTALFRDNAQSHEESLAVLRSSTEFMRYAVSVALQKVQQLEEMGQTDGPDGQNPEKMFQNLCKITRVLLWRYTSIPTAVEESGKKKGKSISLLCLEGLLRIFNTMQQLYAARIPQFLQALDITDGDAEEADINVTEKAAFQIRQFQRSLVNQLSSAEDDFNSKETQLLITILSTLSKLLDPGSQQFLQFLTWTVKICKENALEDLSCCKGLLTLLFSLHVLYKSPVSLLRELAQDIHACLGDIDQDVEIESRSHFAIVNVKTAAPTVCLLVLGQADKVLEEVDWLIKRLTILGSDTSEDSTQASNQTQALEKGVILQLGTLLTVFHELVQTALPAGSCVDSLLRSLSKTYAILTSLIKHYIQACRSTSNTVPGRLEKLVKLSGSHLTPQCYSFITYVQNIHSESLSFAEEKKKKKKEDETAVVSTVMAKVLRDTKPIPNLIFAIEQYEKFLIHLSKKSKVNLMQYMKLSTSRDFRINASMLDSVLQEQNTEDAENEPDNNQSGTAEQPDENQEPQKKRRRKK
notes: FANCI, Gallus gallus, full length cDNA synthesized (GeneArt); C-terminal extension with a 3C protease site before the 6x His tag; no cleavage is described; The results call the FANCI of the pull-down 'untagged', the methods 'His-tagged'; also called free FANCI; monomeric FANCI; source: Sf9, purified (HisTrap, heparin, Superdex 200); not shown: 6x His, C-terminal, kept
B2: StrepII-tagged Gallus gallus FANCD2 (expressed alone) (natural protein, UniProt Q68Y81 1-1439, looked up)
chain: MVSKRKLSKIDAAEESSKTDLQSRCPETKRSRISDKRAPSQGGLENEGVFEELLRTSGIILKVGEGQNEIAVDQTAFQKKLRVALEKHPSYPGVVNEFISGLESHIKDRSQFKNCLLPCTPARTEGSRTLVHSYCESLIKLLLGIKILQPAVVTLLLEKIPEFFFDVVGTFGTNFPRLIVNQFKWLDGLLDSQDLVKKLMQMLSVSPVPIQHDIITSLPEILEDSQQNEVARELSCLLKQGRRLTVPILDALSRLDLDAELLAEVRQSAMTIVPSVKLEDLPVVIKFILHNVKAADAVEVISDLRKSLDLSSCVLPLQLLGSQRKLKSQAQASSSMSQVTTSQNCVKLLFDVIKQAVRFQKDVSEAWIKAIENSTSVSDHKVLDLIVLLLIHSTNSKNRKQTEKVLRSKIRLGCMPEQLMQNAFQNHSMVIKDFFPSILSLAQTFLHSAHPAVVSFGSCMYKQAFAVFDSYCQQEVVCALVTHVCSGNETELDISLDVLTDLVILHPSLLLRYATFVKTILDSMQKLNPCQIRKLFYILSTLAFSQRQEGSYIQDDMHMVIRKWLSSSVPNHKQMGIIGAVTMMGSVALKRNEADGGLLERPELSIECDGQLSTLLDLVGFCCEQTPEVLALYYDELANLIEKQKGNLDLQLLDKFGKSLVEDFPNDFVVDLSPTVDGSFLFPVKSLYNLDEDETQGAIAINLLPLVSQSEPGRVADEMSNSRKRVVSPICLSPCFRLLRLYTGEQNNGSLEEIDALLGCPLYLTDLEVEGKLDSLSKQEREFLCSLLFYALNWFREVVNAFCQQQDAEMKGKVLTRLQNITELQNVLGKCLAATPGYVPPPATFDSEAPEGVPSINAGGPVRKKNGKKRKSDSSKACSAERTQADESSDGNQPDTELSELEKSATEKETGNPLAQLQSYRPYFRELDLEVFSVLHCGLLTKSILDTEMHTEASEVVQLGPAELCFLLDDMCWKLEHVLTPGSTRRVPFLKERGNKDVGFSHLCQRSPKEVAVCVVKLLKPLCNHMENMHNYFQTVIPNQGVVDESGLNIQEYQLMSSCYHQLLLAFRLLFAWSGFSQHENSNLLRSALQVLADRLKPGETEFLPLEELISESFQYLLNFQASIPSFQCAFILTQVLMAISEKPMTGWKREKMASLAKQFLCQSWMKPGGDREKGSHFNSALHTLLCVYLEHTDNILKAIEEISSVGVPELINSAKDGCSSTYPTLSRQTFPVFFRVMMAQLESSVKSIPAGKPSDSGEVQLEKLLKWNIAVRNFHILINLVKVFDSRPVLSICLKYGRLFVEAFLKLAMPLLDHSFKKHRDDVQSLLKTLQLSTRQLHHMCGHSKIHQDLGLTNHVPLLKKSLEQFVYRVKAMLAFNHCQEAFWVGVLKNRDLQGEEILSQASAAPEEDSAEGSEEDTADSAAEEPDGTDSDSGGAGR
notes: FANCD2, Gallus gallus, full length cDNA synthesized (GeneArt); C-terminal extension with a 3C protease site before the double StrepII tag; no cleavage is described; also called FANCD2 homodimer; D2-D2; source: Sf9, purified (Strep-Tactin, heparin, Superdex 200); not shown: double StrepII, C-terminal, kept

Tests used:
[1] = target: B2; experiment: pull-down; StrepII-tagged FANCD2 held on StrepTactin Sepharose, FANCI added at FANCD2:FANCI molar ratios 1:0 to 1:5 and 0:5; 50 mM HEPES pH 7.5, 150 mM NaCl, 1 mM TCEP; 15 min room temperature, 30 min 4 °C on resin, two washes; bound fraction by SDS-PAGE; conditions: both partners purified
[2] = target: the molecule itself; experiment: SEC; Superdex 200 10/300, 50 mM HEPES pH 7.5, 150 mM NaCl, 1 mM TCEP; 300 µl of each protein at 1 µM; mix of 0.5 µM FANCD2 with 1 µM FANCI incubated 30 min at room temperature; fractions by SDS-PAGE

Row | Binder | stoichiometry N [1] | stoichiometry N [2]
1 | B1 | ~1 | –
2 | B2 | – | 2
